Laboratory results: PMC6314544

How the values were obtained:
hLC3-KCK-his6 (human) [1] = molecular target: hLC3-KCK-his6 (human) (UniProt Q9GZQ8); experiment: FRET or BRET; various concentrations of Alexa Fluor 546-labeled NT JMY added to 200 nM Alexa Fluor 647-labeled LC3; 100 mM KCl, 20 mM Hepes pH 7.4
hLC3-KCK-his6 (human) [2] = molecular target: hLC3-KCK-his6 (human) (UniProt Q9GZQ8); experiment: AUC; sedimentation equilibrium of purified LC3 in solution; dimer to monomers

| Substance | Kd (hLC3-KCK-his6 (human) [1]) [nM] | Kd (hLC3-KCK-his6 (human) [2]) [nM] |
| --- | --- | --- |
| SNAP-JMY (1-314), N-terminal region of JMY (from UniProt Q8N9B5 1-314) (domain or fragment) | 55 |  |
| hLC3-KCK-his6 (from UniProt Q9GZQ8 1-120) (natural protein) |  | > 700000 |
